Measured values: patent publication US20090305962A1 (Amgen, published 2009)

Key:
[1] = target: T1, human IL-6 (human, UniProt P05231 30-212); assay: panning and screening on IL-6
T1 construct: the protein used was bought recombinant human IL-6 (R&D Systems), in part biotinylated; also called rhIL-6; hIL-6

[2] = target: T1, human IL-6; assay: ELISA on IL-6 (also TF1 cell assay)

B1: SEQ ID NO 635 (designed binder)
chain: CAPSQFTCGNGNCVPRPWLCDGDNDCEDDSDETSCPPHTCLPDQFQCGSGYCLPQAWVCDGENDCEDGSDETNCPART
binding result [1]: binds

B2: SEQ ID NO 645 (designed binder)
chain: CGANEFQCGSGYCLPVGWVCDGENDCEDNSDEKGCPPHTCLPNQFQCRNGRCIPLPWLCDGDNDCEDDSDATNCTPRT
binding result [1]: binds

B3: SEQ ID NO 665 (designed binder)
chain: CRASQFQCGSGYCIPRPWLCDGVNDCEDGSDEADCQTRTCVPSQFQCGSGYCISQRWVCDGENDCEDSSDEANCAGSVPT
binding result [1]: binds

B4: SEQ ID NO 669 (designed binder)
chain: CEASQFPCRNSERCVPPHLLCDGVNDCADGSDEIGCPPHTCVPSQFQCGSGYCISQRWVCDGENDCEDSSDEANCAGSVPT
binding result [1]: binds

B5: SEQ ID NO 670 (designed binder)
chain: CPSNQFQCRNNGTCIPLPWLCDGVDDCGDDSDETSCTEPTCVPSQFQCGSGYCISQRWVCDGENDCEDSSDEANCAGSVPT
binding result [1]: binds

B6: SEQ ID NO 671 (designed binder)
chain: CQSSEFTCSSGRCLSAGWLCDGVNDCRDDSDEESCTAPVPTCVPSQFQCGSGYCISQRWVCDGENDCEDSSDEANCAGSVPT
binding result [1]: binds

B7: SEQ ID NO 672 (designed binder)
chain: CQPGQFQCHDYGRCVSQNWLCDGDPDCLDSSDEANCQPPTCVPSQFQCGSGYCISQRWVCDGENDCEDSSDEANCAGSVPT
binding result [1]: binds

B8: SEQ ID NO 675 (designed binder)
chain: CRSSEFRCDSGHCLPLPWVCDGDDDCEDGSDEAQDCEPRTCVPSQFQCGSGYCISQRWVCDGENDCEDSSDEANCAGSVPT
binding result [1]: binds

B9: SEQ ID NO 677 (designed binder)
chain: CRADQCQCNSGHCLSRNLRCDGEDDCADNSDEKSCSQDPEFHKVCLPDQFQCGSGYCLPQRWVCDGVDDCEDSSDEKGCTPHT
binding result [1]: binds

B10: SEQ ID NO 680 (designed binder)
chain: CPADEFPCKNGKCLPLPWVCDGDNDCADNSDETDCTATAPTCRSNQFQCGSGYCISQRWVCDGENDCEDSSDEANCAGSVPT
binding result [1]: binds

B11: SEQ ID NO 681 (designed binder)
chain: CGSDEFLCNNGKCIPPTWGCDGVNDCQDNSDEAPALCPPPTCRSNQFQCGSGYCIPQRWVCDGVDDCEDSSDEKGCTPHT
binding result [1]: binds

B12: SEQ ID NO 689 (designed binder)
chain: CRASQFQCGSGYCIPRPWLCDGVNDCEDSSDEANCAGSVPTCQPSQFRCRSGHCISGALGCDGEPDCGDGSDETGCRASAHT
binding result [1]: binds

CQANEFTCSSGNCLSPALLCDGVDDCGDNSDETNCASPAPT (designed binder) [SEQ ID NO 511]
binding result [1]: binds

B13: SEQ ID NO 700 (designed binder)
chain: CRSNQFQCGSGYCIPVKWLCDGENDCEDSSDEESCPARTCPPSEFRCKGSGKCVPQHWLCDGVNDCEDDSDEKSCPPPT
binding result [1]: binds

B14: SEQ ID NO 712 (designed binder)
chain: CRSSQFRCSSGQCVSLGWVCDGVNDCPDSSDETGCPKRTCLPSQFQCGSGYCISQRWVCDGENDCEDSSDEANCAGSVPT
binding result [1]: binds

B15: SEQ ID NO 714 (designed binder)
chain: CPPSQFTCSNGNCLSPTLLCDGVNDCVDDSDETSCAASVHTCLPSQFQCGSGYCISQRWVCDGENDCEDSSDEANCAGSVPT
binding result [1]: binds

B16: SEQ ID NO 715 (designed binder)
chain: CLADQFKCHNTNICIPGRLGCDGDPDCEDDSDEKGCPPHTCLPSQFQCGSGYCISQRWVCDGENDCEDSSDEANCAGSVPT
binding result [1]: binds

B17: SEQ ID NO 716 (designed binder)
chain: CPPGEFPCSSGHCLSQALRCDGVPDCEDDSDETGCPPPTCLPSQFQCGSGYCISQRWVCDGENDCEDSSDEANCAGSVPT
binding result [1]: binds

B18: SEQ ID NO 720 (designed binder)
chain: CLASQFRCGNGSCLSQTLLCDGVNDCADNSDEVSCPPPTCLPSQFQCGSGYCISQRWVCDGENDCEDSSDEANCAGSVPT
binding result [1]: binds

B19: SEQ ID NO 725 (designed binder)
chain: CLANEFRCSSGQCIPARWLCDGVNDCVDDSDEKDCPARTCLPSQFQCGSGYCISQRWVCDGENDCEDSSDEANCAGSVPT
binding result [1]: binds

B20: SEQ ID NO 726 (designed binder)
chain: CLPGQFRCHSTDTCLPESWVCDGVNDCADDSDEASCPPHTCLPSQFQCGSGYCISQRWVCDGENDCEDSSDEANCAGSVPT
binding result [1]: binds

B21: SEQ ID NO 730 (designed binder)
chain: CAPSQFRCESGQCLPANWRCDGENDCQDGSDESPAICEGTAPTCLPSQFQCGSGYCISQRWVCDGENDCEDSSDEANCAGSVPT
binding result [1]: binds

B22: SEQ ID NO 735 (designed binder)
chain: CAANEFRCRSTNTCIPQQWLCDGVNDCQDDSDEKSCRTPAPTCLPSQFQCGSGYCISQRWVCDGENDCEDSSDEANCAGSVPT
binding result [1]: binds

B23: SEQ ID NO 743 (designed binder)
chain: CVPSQFQCRNNGICIPQNWHCDGVPDCEDSSDEESCGTTVHTCLPSQFQCGSGYCISQRWVCDGENDCEDSSDEANCAGSVPT
binding result [1]: binds

B24: SEQ ID NO 745 (designed binder)
chain: CPPGEFKCNSGNCVSPTWGCDGVDDCGDDSDEASAICEAPEHTCLPSQFQCGSGYCISQRWVCDGENDCEDSSDEANCAGSVPT
binding result [1]: binds

B25: SEQ ID NO 749 (designed binder)
chain: CGASEFRCDSGHCISPDWRCDGDNDCVDGSDEKSCEQRTCLPSQFQCGSGYCFSQRWVCDGENDCEDGSDEANCAGSVPT
binding result [1]: binds

B26: SEQ ID NO 751 (designed binder)
chain: CLPSQFQCGSGYCISQRWVCDGENDCEDSSDEANCAGSVPTCLPSEFQCGNGRCLPLRLLCDGDDDCGDNSDEPLATCETSAPT
binding result [1]: binds

B27: SEQ ID NO 754 (designed binder)
chain: CPPSQFPCNSGNCVSAAWVCDGVDDCGDDSDESLAICPTSTCLPDQFQCGSGYCLPQRWVCDGVDDCEDSSDEKGCTPHT
binding result [1]: binds

B28: SEQ ID NO 758 (designed binder)
chain: CRPSQFQCQNSSRCIPLGWRCDGDNDCEDGSDEKDCTATARTCLPDQFQCGSGYCLPQAWVCDGENDCEDGSDETNCPART
binding result [1]: binds

B29: SEQ ID NO 764 (designed binder)
chain: CEAGEFRCRNGSCIPEAWGCDGVNDYLDNSDETNCPAHTCLSSEFQCGSGYCISQRWVCDGENDCEDSSDEANCAGSVPT
binding result [1]: binds

B30: SEQ ID NO 768 (designed binder)
chain: CASNEFPCSNGNCIPGPLRCDGVNDCEDNSDESPLWPLHTCLPSQFQCGSGYCISQRWVCDGENDCEDSSDEANCAGSVPT
binding result [1]: binds

B31: SEQ ID NO 784 (designed binder)
chain: CLSSQFQCDNGNCVPQQWVCDGDNDCLDDSDETSCSAPASEPPGSLCPASQFPCSSGHCVPLNWVCDGVNDCVDGSDEAGCPPRTCLPDQFQCGSGYCISQRWVCDGENDCEDSSDEANCAGSVPT
binding result [1]: binds

B32: SEQ ID NO 785 (designed binder)
chain: CQASEFPCDSGQCIPQPLGCDGDNDCADNSDEESCQPRTCPASQFPCSSGHCVPLNWVCDGVNDCVDGSDEAGCPPRTCLPDQFQCGSGYCISQRWVCDGENDCEDSSDEANCAGSVPT
binding result [1]: binds

B33: SEQ ID NO 787 (designed binder)
chain: CLPNEFTCDSGNCVPQALGCDGDNDCEDNSDESPALCAAPAHTCQANEFTCSSGNCLSPALLCDGVDDCGDNSDETYCASPAPTCLPSQFQCGSGYCISQRWVCDGENDCEDSSDEANCAGSVPT
binding result [1]: binds

CLPSQFQCGSGYCISQRWVCDGEHDCEDSSDEANCAGSVPT (designed binder) [SEQ ID NO 538]
binding result [1]: binds

CLPSQFQCGSGWCISQRWVCDGENDCEDSSDEANCAGSVPT (designed binder) [SEQ ID NO 544]
binding result [1]: binds

B34: SEQ ID NO 925 (designed binder)
chain: CLPDQFRCGNGQCMPLDWVCDGVNDCPDDSDEEGCPPRTCEPGQFQCGSGYCISQRWVCDGENDCEDGSDEATCAGSVPQCPSDEFRCRTGRCIPQAWRCDGVNDCVDNSDEECCKEHT
binding result [2]: binds

CPPDEFQCNSGSCLSQPLLCDGEDDCGDGSDEESCIAAEHT (designed binder) [SEQ ID NO 575]
binding result [1]: binds

CLPSEFQCRDSKICLSADWLCDGVNDCVDGSDEAGCPPRT (designed binder) [SEQ ID NO 599]
binding result [1]: binds

CEANELRCSSGRCLSVHWLCDGVDDCEDSSDEAGCPPRT (designed binder) [SEQ ID NO 600]
binding result [1]: binds

CPSDEFTCDSGRCVSLNWLCDGVNDCGDNSDEAGCPTRT (designed binder) [SEQ ID NO 603]
binding result [1]: binds

B35: SEQ ID NO 629 (designed binder)
chain: CLSSQFQCSNGNCIPAAWLCDSDNDCGDDSDETSCPAPTCPSSQFQCSSGWCIPEDWRCDGVPDCGDGSDEASDHCGDSHILPFSTPGPST
binding result [1]: binds
